Source: PMC9509318 (Nature Communications, 2022)

Legend:
Conditions in all cases: both partners purified
[1] = target: Pfs48/45-D2 + 3 (central and C-terminal domains) (Plasmodium falciparum, UniProt Q8I6T1); experiment: crystal structure
[2] = target: T1, Pfs48/45 full-length ectodomain (Plasmodium falciparum, UniProt Q8I6T1); experiment: negative stain electron microscopy
[3] = target: T1, Pfs48/45 full-length ectodomain; experiment: SPR
[4] = target: Pfs48/45-D3 (C-terminal 6-cys domain of Pfs48/45) (Plasmodium falciparum 3D7 …, UniProt Q8I6T1); experiment: SPR
Chain of Pfs48/45-D3 (C-terminal 6-cys domain of Pfs48/45) (Q8I6T1 291-428): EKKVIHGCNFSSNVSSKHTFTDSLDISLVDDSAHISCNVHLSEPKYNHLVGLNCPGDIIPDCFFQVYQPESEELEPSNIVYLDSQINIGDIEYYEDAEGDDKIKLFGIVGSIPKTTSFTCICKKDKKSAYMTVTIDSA

T1 sequence (Q8I6T1 27-427): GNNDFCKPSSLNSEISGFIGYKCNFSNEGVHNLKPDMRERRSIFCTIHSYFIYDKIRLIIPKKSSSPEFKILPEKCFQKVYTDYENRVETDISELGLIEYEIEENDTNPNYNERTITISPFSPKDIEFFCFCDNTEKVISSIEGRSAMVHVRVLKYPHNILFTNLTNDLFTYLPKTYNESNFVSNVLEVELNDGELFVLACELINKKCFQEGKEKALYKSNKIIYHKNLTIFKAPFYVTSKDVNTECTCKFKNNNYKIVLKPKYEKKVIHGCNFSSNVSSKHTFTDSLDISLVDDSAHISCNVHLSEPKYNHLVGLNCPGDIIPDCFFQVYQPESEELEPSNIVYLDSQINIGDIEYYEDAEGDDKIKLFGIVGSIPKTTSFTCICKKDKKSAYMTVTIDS
Chain of Pfs48/45-D2 + 3 (central and C-terminal domains) (Q8I6T1 159-428): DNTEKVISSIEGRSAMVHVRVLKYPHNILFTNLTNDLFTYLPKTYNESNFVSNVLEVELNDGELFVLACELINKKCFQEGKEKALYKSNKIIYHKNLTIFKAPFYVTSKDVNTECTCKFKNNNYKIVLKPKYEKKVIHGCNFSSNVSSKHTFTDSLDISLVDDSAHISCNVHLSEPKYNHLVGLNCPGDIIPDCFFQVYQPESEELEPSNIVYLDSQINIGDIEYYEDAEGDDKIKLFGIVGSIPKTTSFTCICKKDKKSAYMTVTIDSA

B1: 10D8 Fab fragment (Fab, V domains shown)
VH: EVMLVESGGDLVKPGGSLKVSCAASGFTFSNYAMSWVRQTPEKRLEWVATISSGASYTHYPDSVKGRFTISRDNAKNTLYLQMSSLRSEDTAMYYCGRQVNRHDRALDAMDYWGQGTSVTVSP
VL: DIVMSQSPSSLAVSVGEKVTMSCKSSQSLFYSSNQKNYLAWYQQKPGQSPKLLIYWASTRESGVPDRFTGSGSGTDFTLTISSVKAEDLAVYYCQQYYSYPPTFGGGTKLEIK
notes: source: hybridoma cell line, purified using protein A/G, ficin cleaved to Fab
binding result [1]: binds | binding result [2]: binds

B2: 10D8 monoclonal antibody (antibody, V domains shown)
VH: B1 VH
VL: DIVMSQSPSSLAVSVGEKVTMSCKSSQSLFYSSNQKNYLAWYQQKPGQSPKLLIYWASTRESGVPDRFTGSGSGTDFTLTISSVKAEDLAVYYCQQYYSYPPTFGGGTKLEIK
notes: source: hybridoma cell line, purified using protein A/G
binding result [3]: binds

B3: 32F3 monoclonal antibody (antibody, V domains shown)
VH: DVKLVESGGGLVKLGGSLKLSCAASGFTFSSYYMSWVRQTPEKRLELVAAINNNGGSTYYPDTVKGRFTISRDNAKNTLNLQMNSLKSEDTALYYCTRQHYGNLYFFDYWGQGTTLTVSS
VL: QIVLSQSPAILSASPGEKVTMTCRASSSVTYIHWYQQKPGSSPKPWIQATSSLASGVPARFSGSGSGTSYSLSISRVEAEDAATYYCQQWSSNPLTFGAGTKLELK
notes: as for B2
Kd [4]: 5.2 nM
